Laboratory results as given in the DeepSol protein solubility set.

Assay: soluble on expression in E. coli; label from the status in PepcDB or PDB records

Soluble on expression in E. coli, soluble:
MKIAILGAGCYRTHAAAGITNFMRACEVAKEVGKPEIALTHSSITYGAELLHLVPDVKEVIVSDPCFAEEPGLVVIDEFDPKEVMEAHLSGNPESIMPKIREVVKAKAKELPKPPKACIHLVHPEDVGLKVTSDDREAVEGADIVITWLPKGNKQPDIIKKFADAIPEGAIVTHAATIPTTKFAKIFKDLGREDLNITSYHPGCVPEMKGQVYIAEGYASEEAVNKLYEIGKIARGKAFKMPANLIGPVCDMCSAVTATVYAGLLAYRDAVTKILGAPADFAQMMADEALTQIHNLMKEKGIANMEEALDPAALLGTADSMCFGPLAEILPTALKVLEKHKVVEEEGKTKCEIMSQKE, AFVVTDNCIKCKYTDCVEVCPVDCFYEGPNFLVIHPDECIDDALCEPECPAQAIFSEDEVPEDMQEFIQLNAELAEVWPNITEKKDPLPDAEDWDGVKGKLQHLER, MAGDPMNIQDAQPSTLREMIKQGKLTGHTSGMAKGYVQANVVILPSKCAYDFLLFCFRNPKTCPLLDVSEKGNKSFTKYGVTADISTEVAAYRIYQYGELIETRANVDDLYTDDMVSFLIGCSFTFEHALLEAGIPIRHLEENHNVPMYVTNIPANPSGQFKGNITVSMRPMTMTQAIKATEITTRFKNVHGTPIHIGNPTEIGITDLALPDFGEPVTINENEVPVFWGCGVTPQSVALDAKPDLMITHAPGHMFITDIPDSQLSDLEHHHHHH, MSLRFIDKLYQANLGKLTAGISPAALGTAYYSWFAQLLQSPGSMLRLAYYPLLHANDYLSNLFKYDKPRDGKDVRFHTENWSYYPWRLWAEQFLQFEDWCLQASSKVPGIPLHVKRTVTFSTRQILDALSPSNFVLTNPDLLQETIRSNGQNLIRGTELAFQDFVEKITGSPPAGVENFIPGKQVAVTEGKVVYSNHLIELIQYTPQTEKVYKEGHHHHHH, MSLKITSIAVYQVDLPLREGNYAWSEGKSVSVFDSTVVRIETDSGIFGHGEVCPLGPVYLPAYAAGVRTGVAEIAPALIGDDPTELGKLNRKMDYLLKGHPYVKSALDVACWDIFGQAAGLPICTLLGGRYGEDFTLYRAISQRPAAEMAESVAMYRGEGYRRFQLKVGGDPNEDILRIFEAAEMLEPGDKLIADANTGWLKHEALRVVNAVRDVDVYIEQPCPSYEDCRAIRERTTLPFILDEVIDSVDMIVRCAADRAADVVNLKISKLGGLTKARQARDLCASLGLAMTIEDSWGGDIVTAAIAHLAHSTPTDYLFSSTDFNSYVTKSIADGAPQRDNGRLAAAREPGLGVKPKLDVLGKPVATYGKEGHHHHHH, MLDSVTHSTFLPNASFCDPLMPWTDLFSNEDYYPAFEHQTACDSYWTSVHPEYWTKRHVWEWLQFCCDQYKLDANCISFCHFNISGLQLCSMTQEEFIEAAGICGEYLYFILQNIRSQGYSFFNDAEETKTGIKDYADSSCLKTSGIKSQDCHSRTSLQSSHLWEFVRDLLLSPEENCGILEWEDREQGIFRVVKSEALAKMWGQRKKNDRMTYEKLSRALRYYYKTGILERVDRRLVYKFGKNAHGWQEEKL, SLDWQKGMNSAIDYIEKNLTGNVNVRTAAGFVGCSTWEFQRIFSFLTHIPLSEYIRQRKLTLAAQEIKDNDVKIIDIALKYGYESPAAFSRAFNKLFGIAPSSVRNTENNLKTYPRITFEKIENERLIKMSRFSERGYVVRENGPVYFTKDMDKTVKWFEEILGWSGDIVARDDEGFGDYGCVFDYPSEVAVAHLTPFRGFHLFKGEPIKGVAGFMMIEGIDALHKYVKENGWDQISDIYTQPWGARECSITTTDGCILRFFESIQEG

Soluble on expression in E. coli, not soluble:
MIFDKNFSYAFDENACEKCGGKCCTGESGNIFASKEELEVLRKHLNLESKEFAEKYLRKVGFKMSFKEVECEDGFACIFFDTQKRNCSIYDFRPKQCRTFPFWEYFKTHQKELEKECIGICYLSLEHHHHHH, MITKLDIQEKDGFLTMKDFPMNCIFNKVKTGCGATTIALTNNENYIITVPTTELIENKCYPTKDADGNVKFWKKHERRAGLSPVVNNLFGLYGNFTLELKKKLKDYLSSVGVKKIICTYDKIDKLMEFINPKDFKLTIDEYHNFLKQYSFRDKAINGVLAHFKEFKSYCFLSATPIPNNLKPAIFNDIPEYIADWNTTDDITVYPYHTDKPYMVAAKFIKTYQAKGCLNVNGIESKEAYFFINSVTEIKAILKQTQLTEDDYRIICADNPKNRRTLEEYTISSSADAPKKFNFITSKSFEGVDFHSETGLCFVVSNVQNRHTLVSIDMDIPQIVGRIRTKSNPFRNKVVHIFNTKATDHYTTFEEMEQIVDKEVKAAQERADMLNNTKLSEAATKQQINEIKKVGIESYLSYQENKFVVNDMVAKLQLYSYYIATVVYQSDKSLRETYAQSGIVTTKGKWHIAPEKFVKELIVKPTFRELHKRYCEIKANPMTFDLQTIDIEHEYPILGRAYRQLGVKELKRLRTIKSIQEALGEA, MGSDKIHHHHHHMGKPRIVILGGGFGGLYTARALHRTFRDTAEIEVITAENYFVFQPLLPEVGAGSVTPIHATSPYRFLLKGVGIRKAMIDSVDFAAKRVTVFQGVQRRPTEVPYDHLVVALGQTVDLSRTPGLEAHALTMKTLEDARRLRAHVIERLEHADITNLPEVKRGALTFTVIGGGFSGIETVGEMAELIDRSLKYYPNVSRDEVRIIVLEFADKVLAEMPEKLRAYAQAQLEKRGVEVCLNTGIASATGTQITTTDGDVIDTRTVVATIGNAPAPVVKRMDLPLTQGRIAVERDLSVPGRDGVWSLGDCALIPMVEDANAREDYAPPTAQFAVREAKQLAANIKRAVDGTALKPFEYTSKGSMASLGARRGIADVMGIRLTGFLAWVLWRAYYVAFLPGFPAKVWVLSHWVLDWVTPRSLVNLSSPKTDASRHIRYAKGDRIYETGNRADTFFTIIEGAVEITNAKGHDGQPTTRRIEPGGHFGERLILGATRRVATARALEDTVVLAMGRDEFLKLTRALPALRDYFEAHLAEKGLDWAPEPDERRDAAE, MGSDKIHHHHHHAACSNDDEPGIDKGGQKGELIDAISIAFTSSSAPATRADKGEIEGVGTENNVYVAYLFAKENDPQHEGAKVGDWTVKRVAGDSNTDDKDVAAAIGEGDVATPGTKKNMCTFNGVRQGDSVYVVVNDPQMTLATAQTLAHQGDKSEAAIRAYISNLSKSYLNDLTVTKDGTQGKKYIMAGVSAIPTNPNIPNGSTVKVSIPLNRELAKVFFNASVTTNPVYEAYGKMAIKDAVWENPTGTKDPDGIVVVRIPRRVSPFTAQARDWYFPQSADATAKDWDVEGWLKAFAGESQSVPGTAEVPGTTLALNKGEYNADAKEYRLTWVVGEKALADGATPAAASMVYVKSDKLYSPYFYVTPNYADNAGCATVVVTQATYIGANTLLEPTITEQMLSEALDDSDFQTATSTDGSVKYDKLAADFWNTGANVAALVAFLEKNATYKLALRGETDPSKKEAAITIKPNDKRYYRADVANYSDDETTSMKITERNTFYHITGTITTLGAKSIEDAINSDNIDMLVQVVVKPWKYVVNNINM, DGLEGMDDPDATSKKVVPLGVEIYEINGPFFFGVADRLKGVLDVIEETPKVFILRMRRVPVIDATGMHALWEFQESCEKRGTILLLSGVSDRLYGALNRFGFIEALGEERVFDHIDKALAYAKLLVETAEER, ASFPFGDFTADTKGTSDIAYSFRNDISGTGGLIKKGGSQLQLHGNNTYTGKTIIEGGSLVLYGNNKSDMRVETKGALIYNGAASGGSLNSDGIVYLADTDQSGANETVHIKGSLQLDGKGTLYTRLGKLLKVDGTAIIGGKLYMSARGKGAGYLNSTGRRVPFLSAAKIGQDYSFFTNIETDGGLLASLDSVEKTAGSEGDTLSYYVRRGNAARTASAAAHSAPAGLKHAVEQGGSNLENLMVELDASESSATPETVETAAADRTDMPGIRPYGATFRAAAAVQHANAADGVRIFNS, MIETAIYGKTVDDQSRCVHWHLPKDVIAIRFKCCDKYYACFECHQELSSHPLEKYDLLDDANKHLIICGVCRHEMTFAEYYDYNSNLICPNCRSPFNPGCKLHYHLYFQNPPPAMC, MLCHTLISSFNNHIWRFLIMENKMNDNRVPRERVAILIDSGCDVTEELIRQYNMKLLRLHVIYPEKDYSDDLDISPQTVYERFPGEIPHTSTPSPQEVKDMADELKREGYTHVLAFAISSGLSGTYNTMCSVLNEEEELTSFVLDTRNISFGSGVLAVWAAQKLEEGMPYEELVRLLPGKVQDSKILYYMDTLTYLQKGGRIGLVTSIVGNILNLKPIISCNCEGVYYTVAKIRGSKQGMTKLLAEAKDFAGDGPVWFSLLNGNAAAASNEMLKRITEALPEGKHLLSKQIAASLAVHTGPGLLGIGILKNP, MGILKSLFTLGKSFISQAEESIEETQGVRMLEQHIRDAKAELDKAGKSRVDLLARVKLSHDKLKDLRERKASLEARALEALSKNVNPSLINEVAEEIARLENLITAEEQVLSNLEVSRDGVEKAVTATAQRIAQFEQQMEVVKATEAMQRAQQAVTTSTVGASSSVSTAAESLKRLQTRQAERQARLDAAAQLEKVADGRDLDEKLAEAGIGGSNKSSAQDVLARLQRQQGELEHHHHHH, MIKDILNTIASLVEENVVVFASERGKQLLQKVKADLVSFKPINFYALDAGKQITDALKLIESYCIEMNRIFDELNHQSSVSLANEKLTHKIKNILTNLKNKQNKITQLREKIPEGMLDIKRALYIVENSFLSESEPEEKELRSKFKRIKKFMSNSNKEYLDLIKKGGLLNTVLLDTTTLYWNQLHEYSTLLNQCRITLQKSHHLTKEGQLALRCFNSAIQKMPPKKHIINALKILNKPNSKTEAIEKIGFVSPHGREACMQLTCWGKKFFYIPRSEEMYHFDYDPKEDLNETGGNCFGESMMFIHFLSKGAIRWLCPEAGLINFQLDQTRNLKFKKATLGEGETLVSDNSPHDSLEWEDMRPVLLDNPYFKPGSLCGVIFSMNDYTKAKREFTAGHMIVVAKLDTNLNPYKYIIYEKDFGAFGLTDDESLEYLISEQILPLYRGMNYSKIKLVKYGEASTETYDLLNKIKPQTGIPQKESTASDSINTYFDNAFFKLSKETNKENVIDQVNQTDVFGFCRN, MKLAYWMYAGPAHIGTLRISSSFRNVHAIMHAPLGDDYFNVMRSMLERERNFTPVTTSVVDRNVLARGSQEKVIDNILRKDTEERPDLIVLTPTCTSSILQEDLQNFVERAKESAQCDVLLADVNHYRVNELQAADRTLEQIVRFYLDRAQRQGTLPSQRTEQPSVNILGMTTLGFHNRHDTTELQRLMADLGITVNAVIPAGASVEELQHLPRAWFNLVPYREVGLLTAQYLQDTFDQPMVAIAPMGITATADCIRQIQQVLNQQGAAVDFEPFIDRQTRFASEAAWFSHSIDCQNLTGKRAVVFGDNTHAAAFTKILSREMGIHVVLAGTYCKHDADWFEAEVAGYCDRVLISDDHNAIADAIAELEPAAIFGTQMERHVGKRLNIPCGVIAAPVHIQNFPVGYRPFVGYEGANQIVDLVYNSFTLGMEDHLLEIFGGHDTKEVLTKTVSAGSDLDWKPDGLTELNRIPGFVRGKVKRNTEKYAREQGLTAITAEVLYAAKEALGALEHHHHHH, MGSDKIHHHHHHMQDIDDFLRQHRITEVEAIIPDMAGIARGKIIPRNKFETGESMRLPQAVMVQTVTGDYPEDGTLTGVTDPDMVCVADASTICLIPWAVDPTAQVIHDCVHFDGSPVEISPRYVLRRVLDLYRARGWKPVVAPELEFYLVDMNKDPDLPLRPPVGRTGRAETGRQSYSIEAVNEFDPLFEDIYEYCELQGLDIDTLIHEVGAAQMEINFLHGDALSLADQVFLFKRTVREAALRHNMYATFMAKPMESEPGSAMHIHQSVVDIETGRNLFIGASGDVTPMFRSYLAGLQKYTPALMPIFAPYINSYRRLSRFMAAPINVQWGYDNRTVGFRIPHSAAAARRIENRIPGVDCNPYLAIAGTLAAGYLGVTQGLEPTEPLASDGYSLPYQLPRNLEEGLTLMSACAPLAEMLGEKFVKAYLALKETEYEAFFRVISSWERRHLLLHV
